Reference: patent publication US20250101074A1 (Affibody, published 2025)

Key:
Assay in all cases: SPR (Biacore), PEP07843 immobilized, analyte protein injected
[1] = target: Beta-2-microglobulin/B2M (UniProt P61769 21-119)
Method: (§1) In the binding experiment, HBS-EP was used as running buffer and the flow rate was 30 μl/min. […] The analytes, i.e. the panels of 24 or 12 different proteins, were each diluted in HBS-EP or HBS-EP supplemented with 500 mM NaCl to final concentrations of from 0.4 to 250 nM and injected for 5 min. […] The results were analyzed using the BiaEvaluation software.
(§2) The Z-ABD-Z polypeptides were injected over surfaces containing HSA followed by injection of the analyte proteins.

[2] = target: Alpha-1-antitrypsin (SERPINA1 Human) (human, UniProt P01009 25-418)
Method: as §1, §2

[3] = target: T1, hIL-17E (human, UniProt Q9H293 33-177)
T1 sequence (looked up): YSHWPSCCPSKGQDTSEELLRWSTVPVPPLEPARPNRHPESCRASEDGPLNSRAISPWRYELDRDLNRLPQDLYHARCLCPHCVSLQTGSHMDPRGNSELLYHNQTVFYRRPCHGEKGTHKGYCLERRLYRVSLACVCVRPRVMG
Method: as §1, §2

[4] = target: hIL-1beta (human, UniProt P01584 117-269)
Method: as §1, §2

[5] = target: T2, hIL23 (human, UniProt Q9NPF7 20-189; P29460 23-328)
T2 construct: the two subunits are general knowledge
T2 sequence (looked up) 1: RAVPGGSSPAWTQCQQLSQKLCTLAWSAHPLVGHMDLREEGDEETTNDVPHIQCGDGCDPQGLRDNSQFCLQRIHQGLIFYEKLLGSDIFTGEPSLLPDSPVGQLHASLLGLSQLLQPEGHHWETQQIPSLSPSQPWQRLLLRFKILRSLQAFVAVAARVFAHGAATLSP
T2 sequence (looked up) 2: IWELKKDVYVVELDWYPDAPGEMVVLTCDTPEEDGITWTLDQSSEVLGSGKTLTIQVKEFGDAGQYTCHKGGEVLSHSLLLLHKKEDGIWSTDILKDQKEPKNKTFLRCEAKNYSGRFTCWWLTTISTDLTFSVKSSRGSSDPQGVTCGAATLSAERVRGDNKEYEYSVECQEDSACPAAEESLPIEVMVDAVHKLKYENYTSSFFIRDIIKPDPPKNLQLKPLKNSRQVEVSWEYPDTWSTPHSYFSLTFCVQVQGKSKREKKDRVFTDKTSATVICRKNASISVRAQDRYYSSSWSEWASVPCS
Method: as §1, §2

[6] = target: T3, hIL-17D (human, UniProt Q8TAD2 18-202, limits assumed)
T3 sequence (looked up): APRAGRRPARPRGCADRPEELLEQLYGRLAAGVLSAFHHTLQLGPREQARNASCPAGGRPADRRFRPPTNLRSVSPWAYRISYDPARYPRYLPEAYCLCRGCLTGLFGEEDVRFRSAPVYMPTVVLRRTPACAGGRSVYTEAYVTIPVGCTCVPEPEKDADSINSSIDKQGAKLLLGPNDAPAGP
Method: as §1, §2

Measured: binding result

Chain of Alpha-1-antitrypsin (SERPINA1 Human) (P01009 25-418 limits assumed): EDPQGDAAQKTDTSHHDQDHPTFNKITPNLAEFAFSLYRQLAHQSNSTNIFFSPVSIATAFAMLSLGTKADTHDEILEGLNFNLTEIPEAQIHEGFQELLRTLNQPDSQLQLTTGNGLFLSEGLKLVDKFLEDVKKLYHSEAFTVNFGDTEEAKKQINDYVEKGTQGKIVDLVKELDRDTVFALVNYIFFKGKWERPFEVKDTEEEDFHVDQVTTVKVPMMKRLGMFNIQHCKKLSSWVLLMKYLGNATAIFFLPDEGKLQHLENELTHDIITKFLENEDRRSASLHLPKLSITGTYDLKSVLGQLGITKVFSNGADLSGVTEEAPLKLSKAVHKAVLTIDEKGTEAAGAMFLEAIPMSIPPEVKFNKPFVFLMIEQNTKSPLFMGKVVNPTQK
Chain of Beta-2-microglobulin/B2M (P61769 21-119 limits assumed): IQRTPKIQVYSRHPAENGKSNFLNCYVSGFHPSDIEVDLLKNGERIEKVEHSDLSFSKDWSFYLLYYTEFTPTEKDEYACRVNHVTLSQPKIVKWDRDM

GSSLAEAKEAANAELDSYGVSDFYKRLIDKAKTVEGVEALKDAILAALP (designed binder) [ABD variant PEP07843]
no binding (tested: 50, 250 nM): all assays above
